Values quoted from earlier work in paper PMC4507496.
Read-outs that look alike come from different tables or passages of the source.

Tests used:
[1] = target: ATG7 (Homo sapiens) (UniProt O95352); settings: cited from earlier work
[2] = target: ATG7 (Homo sapiens) (UniProt O95352); settings: cited from earlier work; remark: listed apart in the source

Chain of ATG7 (Homo sapiens) (O95352 2-703): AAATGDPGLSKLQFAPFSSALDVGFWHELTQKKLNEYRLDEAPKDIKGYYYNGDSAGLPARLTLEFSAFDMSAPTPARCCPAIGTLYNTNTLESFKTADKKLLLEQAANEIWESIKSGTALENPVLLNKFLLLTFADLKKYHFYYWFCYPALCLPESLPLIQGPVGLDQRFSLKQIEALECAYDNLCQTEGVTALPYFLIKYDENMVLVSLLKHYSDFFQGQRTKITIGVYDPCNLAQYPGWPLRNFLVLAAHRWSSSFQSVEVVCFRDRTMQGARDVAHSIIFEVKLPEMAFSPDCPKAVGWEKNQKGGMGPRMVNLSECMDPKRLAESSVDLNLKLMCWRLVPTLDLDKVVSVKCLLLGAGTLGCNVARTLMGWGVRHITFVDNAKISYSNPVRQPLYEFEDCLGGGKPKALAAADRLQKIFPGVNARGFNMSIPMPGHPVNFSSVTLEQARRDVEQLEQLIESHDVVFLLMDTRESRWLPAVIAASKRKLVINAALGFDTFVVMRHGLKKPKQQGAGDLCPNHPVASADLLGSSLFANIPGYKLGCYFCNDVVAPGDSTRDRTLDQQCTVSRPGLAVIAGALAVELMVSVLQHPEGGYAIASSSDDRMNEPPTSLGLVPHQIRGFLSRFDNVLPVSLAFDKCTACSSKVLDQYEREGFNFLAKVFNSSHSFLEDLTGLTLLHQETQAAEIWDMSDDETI
Chain of ATG3 (Q9NT62 whole entry): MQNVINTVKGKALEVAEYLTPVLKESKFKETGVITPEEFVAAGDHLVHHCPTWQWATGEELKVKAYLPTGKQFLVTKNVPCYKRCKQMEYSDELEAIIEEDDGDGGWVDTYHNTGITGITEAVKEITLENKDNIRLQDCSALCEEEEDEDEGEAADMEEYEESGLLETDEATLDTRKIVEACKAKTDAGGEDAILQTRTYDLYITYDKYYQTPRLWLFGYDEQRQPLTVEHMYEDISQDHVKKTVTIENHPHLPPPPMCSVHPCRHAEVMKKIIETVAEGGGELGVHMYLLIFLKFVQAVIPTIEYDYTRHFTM
Chain of ATG3 flexible region flexible region (Q9NT62 90-190): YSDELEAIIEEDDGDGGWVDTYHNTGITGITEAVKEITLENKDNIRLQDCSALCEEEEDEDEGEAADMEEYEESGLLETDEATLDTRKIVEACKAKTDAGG

In the case of ATG3 (from UniProt Q9NT62), the Kd [1] is listed as 2200 nM.
In the case of “ATG3 flexible region flexible region (from UniProt Q9NT62)”, the Kd [2] is listed as > 70000 nM.
